Laboratory results from patent US20250243277A1 (AVACTA LIFE SCIENCES, published 2025).
Read-outs that look alike come from different tables or passages of the source. Values belong to the molecule of their own block, whether it stands above or below them.

Key:
[1] = target: papain (UniProt P00784); assay: cell-based or functional assay
[2] = target: T1, human PD-L1 on CHO cells (human, UniProt Q9NZQ7 19-290); assay: flow cytometry histogram, live-gated hu-PD-L1 CHO cells, Affimer at 100 nM
T1 construct: whole, on cells; also called Human PD-L1 CHO cells; hu-PD-L1 CHO cells
T1 sequence (Q9NZQ7 19-290): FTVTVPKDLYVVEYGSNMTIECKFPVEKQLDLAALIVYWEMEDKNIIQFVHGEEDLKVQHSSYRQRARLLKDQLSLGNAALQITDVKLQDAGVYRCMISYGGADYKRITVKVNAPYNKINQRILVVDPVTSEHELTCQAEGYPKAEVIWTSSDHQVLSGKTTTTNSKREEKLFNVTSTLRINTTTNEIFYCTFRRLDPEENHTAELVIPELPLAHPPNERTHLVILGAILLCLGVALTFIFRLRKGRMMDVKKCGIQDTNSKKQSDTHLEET
Method: Human PD-L1 CHO cells having a cell surface over expressing human PD-L1 or CHO-negative cells were plated at 50,000 cells per well in a round bottom tissue culture plate. AFFIMER® clones were titrated from 700 nM or monoclonal antibody (mAb) controls titrated from 10 nM in cell staining buffer (PBS, 1% BSA+2 mM EDTA+0.05% Sodium Azide buffer) and incubated for 1 hour. After two washes with staining buffer, AFFIMER® polypeptides were detected with an anti-cystatin antibody. After a further two washes, AF488-conjugated anti-goat antibody (to detect AFFIMER® polypeptides) or AF488-conjugated anti human IgG1 antibody (to detect mAb controls) were incubated for 40 minutes followed by an additional wash step. Viability dye (Zombie Aqua reagent, Biolegend) was added and the plates were incubated for 10 min. After a final wash, cells were fixed and the data acquired using a multiparameter flow cytometer (Guava 12HT, Luminex Corp).

[3] = target: T2, human PD-L1-Fc (R&D Systems) (human, UniProt Q9NZQ7 19-239); assay: PD-L1/PD-1 competition ELISA, % inhibition: Affimer pre-incubated with huPD-L1-Fc, then loaded on plate-coated human PD-1-Fc (blocked ligand). Column head on the sheet reads 'EC50nM'; the text calls these values IC50
T2 construct: Bought from R&D Systems; Biotinylated in-house for the phage selection; also called huPD-L1-Fc; human PD-L1-Fc antigen; not shown: Fc part of the bought fusion
T2 sequence (Q9NZQ7 19-239 limits assumed): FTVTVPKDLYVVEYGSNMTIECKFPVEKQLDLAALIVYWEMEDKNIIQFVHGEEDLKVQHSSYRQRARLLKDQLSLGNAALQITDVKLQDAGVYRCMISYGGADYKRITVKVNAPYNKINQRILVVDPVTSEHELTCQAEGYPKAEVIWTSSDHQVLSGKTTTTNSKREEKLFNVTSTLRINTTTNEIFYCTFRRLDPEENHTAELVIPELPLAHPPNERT
Method: (§1) The competitive inhibition of AFFIMER® multimers was evaluated by enzyme linked immunosorbent assay (ELISA). Human PD-1-Fc (R&D Systems) was coated at 0.5 μg/ml on the plate. Plates were washed two times with […] of washing buffer (PBS, Tween 20 0.1%) with a plate washer and saturated with Casein 5% (Sigma) in PBS for 90 minutes at room temperature (25±1° C.). Plates were subsequently washed. AFFIMER® polypeptides and controls (human PD-1-Fc; R&D Systems or blank) were then diluted in duplicate, and preincubated with huPD-L1-Fc (R&D Systems) at a predefined concentration equivalent to the EC₈₀ for 30 minutes then loaded on the plate for 90 minutes at room temperature (25±1° C.). Plates were washed 3 times. Biotinylated polyclonal antibody anti-human PD-L1 (R&D Systems) was then diluted in dilution buffer and incubated 90 minutes at room temperature (25±1° C.). Plates were washed 3 times and Streptavidin HRP was incubated for 30 minutes at room temperature (25±1° C.). Plates were washed and the substrate (TMB; Pierce Thermo-Scientific) added to the plate for 10 minutes. The reaction was stopped using an acidic solution and plates were read at absorbance 450-630 nm. The IC₅₀ was then calculated using the interpolated non-linear four-parameter standard curve.

[4] = target: T1, human PD-L1 on CHO cells; assay: cell-based or functional assay
[5] = target: T2, human PD-L1-Fc (R&D Systems); assay: SPR (Biacore T200): human PD-L1-Fc amine-coupled on a CM5 chip, Affimer monomer titrated as analyte, 1:1 Langmuir fit
Method: (§2) BIACORE™ T200 binding kinetic analysis was performed on monomer AFFIMER® clones with running buffer HBS-EP+ (Cytiva) and a series S sensor CM5 chip immobilized with human PD-L1-Fc (R&D Systems) in 10 mM Sodium acetate pH4.0 μsing amine coupling reagents (Cytiva). A concentration titration of AFFIMER® monomer was run as analyte with an association time of 150 seconds, followed by a dissociation time of 300 seconds at a flow rate of 30 μl/min. For Clone 80, the association time was increased to 500 seconds and 1000 seconds dissociation time. The human PD-L1-Fc immobilized surface was regenerated with 3-3.5 mM NaOH solution (Cytiva) for 20-30 seconds at 20 μl/min flow rate. The kinetic data was blank subtracted and fit to a 1:1 Langmuir binding model (BIAcore evaluation software; Cytiva) to calculate an apparent KD value.

[6] = target: T2, human PD-L1-Fc (R&D Systems); assay: PD-1/PD-L1 competitive ELISA, average n = 2; competitor PD-1-Fc coated
Method: as §1
Analysis identified three mutants which no longer bind target antigen, three mutants which have reduced binding and twelve (12) mutants which retaining binding to target antigen. […] The mutant AFFIMER® clones which retained binding to PD-L1 were assessed in both a competition ELISA (as described in Example 4) and the PD1:PD-L1 blockade cell-based Promega assay (as described in Example 5).

[7] = target: T2, human PD-L1-Fc (R&D Systems); assay: SPR (Biacore T200): human PD-L1-Fc amine-coupled on a CM5 chip, Affimer monomer titrated as analyte (500 s association, 1000 s dissociation), 1:1 Langmuir fit
Method: as §2

[8] = target: T2, human PD-L1-Fc (R&D Systems); assay: PD-1/PD-L1 competition ELISA, % inhibition: Affimer pre-incubated with huPD-L1-Fc, then loaded on plate-coated human PD-1-Fc (blocked ligand)
Method: as §1, with “curve. […]” for “curve.”

[9] = target: T1, human PD-L1 on CHO cells; assay: cell-based or functional assay; remark: listed apart in the source
[10] = target: T2, human PD-L1-Fc (R&D Systems); assay: SPR (Biacore 8K), binding to PD-L1-Fc
[11] = target: T1, human PD-L1 on CHO cells; assay: cell-based or functional assay; remark: listed apart in the source
[12] = target: T1, human PD-L1 on CHO cells; assay: cell-based or functional assay; remark: listed apart in the source
[13] = target: T1, human PD-L1 on CHO cells; assay: cell-based or functional assay; remark: listed apart in the source
[14] = target: T1, human PD-L1 on CHO cells; assay: cell-based or functional assay; remark: listed apart in the source
[15] = target: T1, human PD-L1 on CHO cells; assay: cell-based or functional assay; remark: listed apart in the source

Sequence of papain (P00784 134-345 limits assumed): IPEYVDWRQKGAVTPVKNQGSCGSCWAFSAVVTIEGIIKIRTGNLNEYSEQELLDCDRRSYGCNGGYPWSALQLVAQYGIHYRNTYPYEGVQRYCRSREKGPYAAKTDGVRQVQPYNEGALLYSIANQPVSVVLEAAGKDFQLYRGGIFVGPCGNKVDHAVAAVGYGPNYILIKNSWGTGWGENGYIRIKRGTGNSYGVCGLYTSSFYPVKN

B3: Clone 80 (designed binder)
chain: MIPGGLSEAKPATPEIQEIVDKVKPQLEEKTGETYGKLEAVQYKTQVVRRKHFPQWPGTNYYIKVRAGDNKYMHLKVFKSLDLQPREVFQEDLVLTGYQVDKNKDDELTGF
notes: type III Affimer monomer made in E. coli; His-tagged; also called Clone 80 parent control molecule
IC50 [6]: 2.6 nM | Kd [7]: 0.568 nM | koff [7]: 0.00163 s⁻¹ | kon [7]: 2.88e+06 M⁻¹ s⁻¹ | IC50 [8]: 0.19 nM | % (cells in the positive gate) [2]: 98.9% | MFI [2]: 1330 MFI | EC50 [3]: 0.538 nM | EC50 (read off the curve); Promega PD-1/PD-L1 blockade bioassay, fold of induction [9]: ~80 nM | IC50, PD-1/PD-L1 blockade Bioassay (Promega) [4]: 30 nM

B5: Clone 80 V88A (designed binder)
chain: MIPGGLSEAKPATPEIQEIVDKVKPQLEEKTGETYGKLEAVQYKTQVVRRKHFPQWPGTNYYIKVRAGDNKYMHLKVFKSLDLQPREAFQEDLVLTGYQVDKNKDDELTGF
notes: alanine mutant of Clone 80 made in E. coli
IC50 [6]: 2.56 nM | Kd [10]: 1.96 nM | EC50 (read off the curve); Promega PD-1/PD-L1 blockade bioassay, fold of induction [12]: ~100 nM

B6: Clone 80 R49A (designed binder)
chain: MIPGGLSEAKPATPEIQEIVDKVKPQLEEKTGETYGKLEAVQYKTQVVARKHFPQWPGTNYYIKVRAGDNKYMHLKVFKSLDLQPREVFQEDLVLTGYQVDKNKDDELTGF
notes: as for B5
IC50 [6]: 4.83 nM | Kd [10]: 2 nM | EC50 (read off the curve); Promega PD-1/PD-L1 blockade bioassay, fold of induction [9]: ~200 nM

B8: Clone 80 E87A (designed binder)
chain: MIPGGLSEAKPATPEIQEIVDKVKPQLEEKTGETYGKLEAVQYKTQVVRRKHFPQWPGTNYYIKVRAGDNKYMHLKVFKSLDLQPRAVFQEDLVLTGYQVDKNKDDELTGF
notes: as for B5
IC50 [6]: 3.83 nM | Kd [10]: 0.61 nM | EC50 (read off the curve); Promega PD-1/PD-L1 blockade bioassay, fold of induction [14]: ~100 nM

B9: Clone 80 R86A (designed binder)
chain: MIPGGLSEAKPATPEIQEIVDKVKPQLEEKTGETYGKLEAVQYKTQVVRRKHFPQWPGTNYYIKVRAGDNKYMHLKVFKSLDLQPAEVFQEDLVLTGYQVDKNKDDELTGF
notes: as for B5
IC50 [6]: 2.33 nM | Kd [10]: 4.02 nM | EC50 (read off the curve); Promega PD-1/PD-L1 blockade bioassay, fold of induction [15]: ~70 nM

Second part, the molecule after the results:

IC50, inhibition of papain cleavage of Z-Phe-Arg-AMC [1]: 3.8 nM
Molecule: Stefin A (from UniProt P01040 1-98)

% (cells in the positive gate) [2]: 98% | MFI [2]: 1010 MFI | EC50 [3]: 0.205 nM | IC50, PD-1/PD-L1 blockade Bioassay (Promega) [4]: 30 nM
B1: Clone 255 (designed binder)
chain: MIPRGLSEAKPATPEIQEIVDKVKPQLEEKTNETYGKLEAVQYKTQVLAREGRQDWVLSTNYYIKVRAGDNKYMHLKVFNGPWVPFPHQQLADRVLTGYQVDKNKDDELTGF
notes: type I Affimer monomer

Kd [5]: 45.6 nM | koff [5]: 0.0909 s⁻¹ | kon [5]: 1.99e+06 M⁻¹ s⁻¹ | EC50 [3]: 16.9 nM
B2: Clone 54 (designed binder)
chain: MIPGGLSEAKPATPEIQEIVDKVKPQLEEKTGETYGKLEAVQYKTQVVINQQQIKHSGTNYYIKVRAGDNKYMHLKVFKSLWQHIPPDFWEDLVLTGYQVDKNKDDELTGF
notes: type III Affimer monomer; His-tagged

IC50 [6]: 2.23 nM | Kd [10]: 0.97 nM | EC50 (read off the curve); Promega PD-1/PD-L1 blockade bioassay, fold of induction [11]: ~100 nM
B4: Clone 80 Q90A (designed binder)
chain: MIPGGLSEAKPATPEIQEIVDKVKPQLEEKTGETYGKLEAVQYKTQVVRRKHFPQWPGTNYYIKVRAGDNKYMHLKVFKSLDLQPREVFAEDLVLTGYQVDKNKDDELTGF
notes: as for B5

IC50 [6]: 3.35 nM | Kd [10]: 0.66 nM | EC50 (read off the curve); Promega PD-1/PD-L1 blockade bioassay, fold of induction [13]: ~200 nM
B7: Clone 80 K51A (designed binder)
chain: MIPGGLSEAKPATPEIQEIVDKVKPQLEEKTGETYGKLEAVQYKTQVVRRAHFPQWPGTNYYIKVRAGDNKYMHLKVFKSLDLQPREVFQEDLVLTGYQVDKNKDDELTGF
notes: as for B5

% (cells in the positive gate) [2]: 98.1% | MFI [2]: 1240 MFI | EC50 [3]: 8.55 nM
B10: Clone 256 (designed binder)
chain: MIPRGLSEAKPATPEIQEIVDKVKPQLEEKTNETYGKLEAVQYKTQVLAKEHGPDSWWSTNYYIKVRAGDNKYMHLKVFNGPQEKNQWVEEADRVLTGYQVDKNKDDELTGF
notes: type I Affimer monomer
